Measured values as given in the RNAGym collection of RNA variant scans (doi:10.7554/elife.80360).

B1: Twister Ribozyme (parent)
chain: AACACUGCCAAUGCCGGUCCCAAGCCCGGAUAAAAGUGGAGGGGGCGG

Variants of: B1
Experiment: self-cleavage, relative activity (ratio to wild type); higher = more cleavage; co-transcriptional
Work on AACACUGCCAAUGCCGGUCCCAAGCCCGGAUAAAAGUGGAGUGGGCGU [G42U G48U] yielded a self-cleavage of 0.451. In the case of AACACUGCCAAUGCCGGUCCCAAGCCCGGAUAAAAGUGGAGUGGGCGA [G42U G48A], the self-cleavage is reported as 0.25. Work on AACACUGCCAAUGCCGGUCCCAAGCCCGGAUAAAAGUGGAGCGCGCGG [G42C G44C] yielded a self-cleavage of 0.17. With AACACUGCCAAUGCCGGUCCCAAGCCCGGAUAAAAGUGGAGCGAGCGG [G42C G44A] the self-cleavage was 0.396. With AACACUGCCAAUGCCGGUCCCAAGCCCGGAUAAAAGUGGAGCGGGCGG [G42C] the self-cleavage was 0.622. Work on AACACUGCCAAUGCCGGUCCCAAGCCCGGAUAAAAGUGGAGUGGGCGG [G42U] yielded a self-cleavage of 0.445. Work on AACACUGCCAAUGCCGGUCCCAAGCCCGGAUAAAAGUGGAGAGUGCGG [G42A G44U] yielded a self-cleavage of 0.173. Variant AACACUGCCAAUGCCGGUCCCAAGCCCGGAUAAAAGUGGAGAGCGCGG [G42A G44C] has a self-cleavage of 0.178. With AACACUGCCAAUGCCGGUCCCAAGCCCGGAUAAAAGUGGAGGCGUCGG [G43C G45U] the self-cleavage was 0.275. AACACUGCCAAUGCCGGUCCCAAGCCCGGAUAAAAGUGGAGGCGCCGG [G43C G45C] gave a self-cleavage of 0.267. With AACACUGCCAAUGCCGGUCCCAAGCCCGGAUAAAAGUGGAGGAAGCGG [G43A G44A] the self-cleavage was 0.267. AACACUGCCAAUGCCGGUCCCAAGCCCGGAUAAAAGUGGAGGACGCGG [G43A G44C] gave a self-cleavage of 0.465. AACACUGCCAAUGCCGGUCCCAAGCCCGGAUAAAAGUGGAGGAUGCGG [G43A G44U] gave a self-cleavage of 0.271. With AACACUGCCAAUGCCGGUCCCAAGCCCGGAUAAAAGUGGAGCGGGCCG [G42C G47C] the self-cleavage was 0.467. In the case of AACACUGCCAAUGCCGGUCCCAAGCCCGGAUAAAAGUGGAGCGGGCAG [G42C G47A], the self-cleavage is reported as 0.43. With AACACUGCCAAUGCCGGUCCCAAGCCCGGAUAAAAGUGGAGCGGGCUG [G42C G47U] the self-cleavage was 0.491. For AACACUGCCAAUGCCGGUCCCAAGCCCGGAUAAAAGUGGAGGAGGCGG [G43A], the self-cleavage was 0.328. AACACUGCCAAUGCCGGUCCCAAGCCCGGAUAAAAGUGGAGGCGGCGG [G43C] gave a self-cleavage of 0.227. Work on AACACUGCCAAUGCCGGUCCCAAGCCCGGAUAAAAGUGGAGGCGGAGG [G43C C46A] yielded a self-cleavage of 0.111. AACACUGCCAAUGCCGGUCCCAAGCCCGGAUAAAAGUGGAGGCGGGGG [G43C C46G] showed a self-cleavage of 0.174. AACACUGCCAAUGCCGGUCCCAAGCCCGGAUAAAAGUGGAGGCAGCGG [G43C G44A] showed a self-cleavage of 0.469. Variant AACACUGCCAAUGCCGGUCCCAAGCCCGGAUAAAAGUGGAGGCCGCGG [G43C G44C] has a self-cleavage of 0.686. AACACUGCCAAUGCCGGUCCCAAGCCCGGAUAAAAGUGGAGUCGGCGG [G42U G43C] gave a self-cleavage of 0.114. With AACACUGCCAAUGCCGGUCCCAAGCCCGGAUAAAAGUGGAGUUGGCGG [G42U G43U] the self-cleavage was 0.127. Variant AACACUGCCAAUGCCGGUCCCAAGCCCGGAUAAAAGUGGAGCGGGAGG [G42C C46A] has a self-cleavage of 0.289. For AACACUGCCAAUGCCGGUCCCAAGCCCGGAUAAAAGUGGAGCCGGCGG [G42C G43C], the self-cleavage was 0.365. AACACUGCCAAUGCCGGUCCCAAGCCCGGAUAAAAGUGGAGCUGGCGG [G42C G43U] showed a self-cleavage of 0.137. With AACACUGCCAAUGCCGGUCCCAAGCCCGGAUAAAAGUGGAGGAGGUGG [G43A C46U] the self-cleavage was 0.315. With AACACUGCCAAUGCCGGUCCCAAGCCCGGAUAAAAGUGGAGGAGGGGG [G43A C46G] the self-cleavage was 0.367. Work on AACACUGCCAAUGCCGGUCCCAAGCCCGGAUAAAAGUGGAGCGGGCGU [G42C G48U] yielded a self-cleavage of 0.561. Variant AACACUGCCAAUGCCGGUCCCAAGCCCGGAUAAAAGUGGAGGAGGCGC [G43A G48C] has a self-cleavage of 0.354. For AACACUGCCAAUGCCGGUCCCAAGCCCGGAUAAAAGUGGAGGAGGCGU [G43A G48U], the self-cleavage was 0.291. For AACACUGCCAAUGCCGGUCCCAAGCCCGGAUAAAAGUGGAGGAGGCGA [G43A G48A], the self-cleavage was 0.244. With AACACUGCCAAUGCCGGUCCCAAGCCCGGAUAAAAGUGGAGUGGGCCG [G42U G47C] the self-cleavage was 0.224. AACACUGCCAAUGCCGGUCCCAAGCCCGGAUAAAAGUGGAGUGGGCUG [G42U G47U] showed a self-cleavage of 0.296. Work on AACACUGCCAAUGCCGGUCCCAAGCCCGGAUAAAAGUGGAGGAGUCGG [G43A G45U] yielded a self-cleavage of 0.305. With AACACUGCCAAUGCCGGUCCCAAGCCCGGAUAAAAGUGGAGGAGACGG [G43A G45A] the self-cleavage was 0.318. AACACUGCCAAUGCCGGUCCCAAGCCCGGAUAAAAGUGGAGGCGGCGU [G43C G48U] gave a self-cleavage of 0.138. Variant AACACUGCCAAUGCCGGUCCCAAGCCCGGAUAAAAGUGGAGAGGGCUG [G42A G47U] has a self-cleavage of 0.325. For AACACUGCCAAUGCCGGUCCCAAGCCCGGAUAAAAGUGGAGAGGGCCG [G42A G47C], the self-cleavage was 0.241. With AACACUGCCAAUGCCGGUCCCAAGCCCGGAUAAAAGUGGAGUGGGUGG [G42U C46U] the self-cleavage was 0.383. In the case of AACACUGCCAAUGCCGGUCCCAAGCCCGGAUAAAAGUGGAGUGGGGGG [G42U C46G], the self-cleavage is reported as 0.309. AACACUGCCAAUGCCGGUCCCAAGCCCGGAUAAAAGUGGAGGAGGCUG [G43A G47U] gave a self-cleavage of 0.175. With AACACUGCCAAUGCCGGUCCCAAGCCCGGAUAAAAGUGGAGUGGUCGG [G42U G45U] the self-cleavage was 0.191. AACACUGCCAAUGCCGGUCCCAAGCCCGGAUAAAAGUGGAGUGGACGG [G42U G45A] showed a self-cleavage of 0.294. AACACUGCCAAUGCCGGUCCCAAGCCCGGAUAAAAGUGGAGUGGCCGG [G42U G45C] gave a self-cleavage of 0.203. AACACUGCCAAUGCCGGUCCCAAGCCCGGAUAAAAGUGGAGUGUGCGG [G42U G44U] showed a self-cleavage of 0.196. Work on AACACUGCCAAUGCCGGUCCCAAGCCCGGAUAAAAGUGGAGUGCGCGG [G42U G44C] yielded a self-cleavage of 0.202. For AACACUGCCAAUGCCGGUCCCAAGCCCGGAUAAAAGUGGAGAGGUCGG [G42A G45U], the self-cleavage was 0.153. Variant AACACUGCCAAUGCCGGUCCCAAGCCCGGAUAAAAGUGGAGAGGCCGG [G42A G45C] has a self-cleavage of 0.187. AACACUGCCAAUGCCGGUCCCAAGCCCGGAUAAAAGUGGAGAGGGCGU [G42A G48U] showed a self-cleavage of 0.397. Variant AACACUGCCAAUGCCGGUCCCAAGCCCGGAUAAAAGUGGAGAGGGCGA [G42A G48A] has a self-cleavage of 0.296. In the case of AACACUGCCAAUGCCGGUCCCAAGCCCGGAUAAAAGUGGAGCGGACGG [G42C G45A], the self-cleavage is reported as 0.329. Variant AACACUGCCAAUGCCGGUCCCAAGCCCGGAUAAAAGUGGAGCGGCCGG [G42C G45C] has a self-cleavage of 0.131.
